Measurements: US20240083986A1 (published 2024)

T1: natural Bet v 1 (Indoor, Cat #NA-BV1-1) (Betula verrucosa (European white birch, …, UniProt P15494 2-160))
T1 construct: Bought natural protein purified from birch pollen; also called nBet v 1
T1 sequence: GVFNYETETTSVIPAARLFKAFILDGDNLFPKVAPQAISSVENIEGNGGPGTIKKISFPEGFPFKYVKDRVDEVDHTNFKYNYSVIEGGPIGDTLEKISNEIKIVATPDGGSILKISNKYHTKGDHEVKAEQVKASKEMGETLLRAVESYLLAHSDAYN

T2: European Hornbeam (Car b 1 isoform 1A & 1B, MyBiosource, Cat #MBS1200018) (European Hornbeam, UniProt P38949 2-160)
T2 construct: Bought reagent
T2 sequence (looked up): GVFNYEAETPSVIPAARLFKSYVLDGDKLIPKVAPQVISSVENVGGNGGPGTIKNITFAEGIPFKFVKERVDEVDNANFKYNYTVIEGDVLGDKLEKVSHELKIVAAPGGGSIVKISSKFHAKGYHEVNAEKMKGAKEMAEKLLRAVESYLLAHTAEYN

T3: Apple (Mal d 1, MyBiosource, Cat #MBS1224919) (Apple, UniProt P43211 2-159, limits assumed)
T3 construct: Bought reagent
T3 sequence (looked up): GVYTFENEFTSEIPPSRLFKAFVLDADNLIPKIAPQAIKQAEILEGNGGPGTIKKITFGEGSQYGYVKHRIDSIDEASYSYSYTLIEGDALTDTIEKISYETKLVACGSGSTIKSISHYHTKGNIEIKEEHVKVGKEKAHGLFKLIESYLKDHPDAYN

T4: Celery (Api g 1, MyBiosource, Cat #MBS1171376) (Celery, UniProt P49372 1-154, limits assumed)
T4 construct: Bought reagent
T4 sequence (looked up): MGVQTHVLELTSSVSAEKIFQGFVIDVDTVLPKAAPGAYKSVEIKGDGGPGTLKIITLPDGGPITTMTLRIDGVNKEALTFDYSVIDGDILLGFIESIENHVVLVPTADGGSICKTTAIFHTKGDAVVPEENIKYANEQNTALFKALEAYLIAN

T5: Alder (Aln g 1, MyBiosource, Cat #MBS1041484) (Alder, UniProt P38948 2-160, limits assumed)
T5 construct: Bought reagent
T5 sequence (looked up): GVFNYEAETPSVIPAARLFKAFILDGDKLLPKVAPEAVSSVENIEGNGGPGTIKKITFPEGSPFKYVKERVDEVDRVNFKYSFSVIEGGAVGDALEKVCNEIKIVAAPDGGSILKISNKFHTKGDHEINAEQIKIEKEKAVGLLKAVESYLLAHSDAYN

T6: European Hornbeam (Car b 1 isoform 2, MyBiosource, Cat #MBS1043940) (European Hornbeam, UniProt P38950 2-160, limits assumed)
T6 construct: Bought reagent
T6 sequence (looked up): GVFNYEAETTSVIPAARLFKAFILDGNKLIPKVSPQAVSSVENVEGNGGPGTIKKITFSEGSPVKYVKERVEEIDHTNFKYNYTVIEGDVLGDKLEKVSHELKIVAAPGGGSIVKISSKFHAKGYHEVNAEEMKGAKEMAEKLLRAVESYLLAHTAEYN

B1: H4H16991P (antibody, human IgG4, V domains shown)
VH: QVQLVQSGAEVRKPGASVKVSCKASGYTFTGYYLHWVRQAPGQGLEWMGLINPNTGGTNFAQKFQGRVTMTRDSSISAAYMELSRLRSDDTAVYYCARQHWNRYFDNWGQGTLVTVSS
VL: DIQMTQSPSTLSASVGDRVTITCRASQSVGNWLAWYQQKPGKAPKLLIQEASSIESGVPSRFSGSGSGTEFTLIVSSLQPDDFATYYCQQYNSYSWTFGHGTKVEIK
B2: H4H16960P (antibody, human IgG4, V domains shown)
VH: QLQLQESGPGLVRPSETLSLTCTVSGGSISSSNYWWGWIRQPPGKGLEWIGSIYYSGITYYNPSLKSRVTISADTSKDQFSLKLRSVTAADTAVYYCAKLEWLRLDFWGQGTTVTVSS
VL: DIQMTQSPSSVSASVGDRVTITCRASQGISSWLVWYQQKPGKVPKLLIYAASSLQSGVPLRFSGSGSGTDFTLTISSLQPEDFATYYCQQAKSFPLTFGQGTRLEIK
B3: H4H17067P2 (antibody, human IgG4, V domains shown)
VH: EVQLVQSGAEVKKPGESLKISCSGSGYRFTNYWIAWVRQMPGKGLEWMGLIHPDDSDIRYSPSFQGQVTFSVDKSINTAYLQWSSLKASDTAMYYCTRQDGILWSHNAWFDPWGQGTLVTVSS
VL: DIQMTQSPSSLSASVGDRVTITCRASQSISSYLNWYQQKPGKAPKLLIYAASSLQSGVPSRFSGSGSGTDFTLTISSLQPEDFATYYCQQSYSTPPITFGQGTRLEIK
B4: H4H16950P (antibody, human IgG4, V domains shown)
VH: QVQLVQSGAEVKKPGASVKVSCKTSGYTFTNYGITWVRQAPGQGLEWMGWISAYNGNTNYAQNVQGRVTMTTDTSTSTAYMEVRSLRSDDTAVYYCARRSSMLHFQHWGQGTLVTVSS
VL: DIVMTQSPDSLAVSLGERATINCKSSQHVLYDSSNENYLAWFQQKPGQPPKLLIYWASTRESGVPDRFSGSGSGTDFTLTISSLQAEDVAVYYCQQYSSAPYTFGQGTKLEIK
B5: H4H17015P (antibody, human IgG4, V domains shown)
VH: QVQLQESGPGLVKPSQTLSLTCTVSGGSISSADHYWSWIRQQPGKGLEWIGYISYRGTTYYNPTLESRVSISVDTFKNQFSLMLHSVTVADTAVYYCAKVLQGLVRFRDYGFDVWGQGTTVTVSS
VL: DIQLTQSPPFLSASVGDRVTITCWASQDISSYLAWYQQNPGKSPKLLIYDAFTLHTGVPSRFSGSGSGTEFTLTISSLQPEDFATFYCQHLYSFPFTFGPGTKVDIK
B6: H4H17045P2 (antibody, human IgG4, V domains shown)
VH: EVQLVESGGGLVQPGVSLRLSCVASGFTFSNYDITWIRQIPGKGLEWVSRISGSGGSTYFADSVKGRFIISRDNSKNTVYMQMNSLRAEDSAVYYCARRDSVLFSMNSWLDPWGQGTLVTVSS
VL: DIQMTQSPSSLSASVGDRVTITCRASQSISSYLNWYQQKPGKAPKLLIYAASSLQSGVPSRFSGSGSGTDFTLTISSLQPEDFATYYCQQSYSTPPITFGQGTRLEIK

Molecular target: T1, natural Bet v 1 (Indoor, Cat #NA-BV1-1)
Assay: SPR Biacore, mAb captured on anti-hFc, 37C;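 note: purified anti-Bet v 1 monoclonal antibodies, HBS-ET running buffer pH 7.4, rate constants from 1:1 model fit with mass transport limitation, KD and t½ calculated from kinetic constants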
Method: (§1) Equilibrium dissociation constants (KD) for natural Bet v 1 binding to purified anti-Bet v 1 monoclonal antibodies were determined using a real-time surface plasmon resonance biosensor (SPR-Biacore) on a Biacore 4000 instrument. All binding studies were performed in 10 mM HEPES, 150 mM NaCl, 3 mM EDTA, and 0.05% v/v surfactant Tween-20, pH 7.4 (HBS-ET) running buffer at 25° C. and 37° C. […] Association (kₐ) and dissociation (kd) rate constants were determined by fitting the real-time binding sensorgrams to a 1:1 binding model with mass transport limitation using Scrubber 2.0c curve-fitting software. Binding dissociation equilibrium constants (KD) and dissociative half-lives (t½) were calculated from the kinetic rate constants as:

Row | 100 nM natural Bet v 1 Bound (RU) | Kd [nM] | koff [s⁻¹] | kon [M⁻¹ s⁻¹] | t½ [min] | Binder
1 | 66 | 2.16 | 0.00108 | 500000 | 11 | B1
2 | 65 | 2.54 | 0.00168 | 662000 | 6.8 | B2
3 | 80 | 5.48 | 0.00147 | 268000 | 7.9 | B3
4 | 76 | 8.57 | 0.00121 | 141000 | 10 | B4
5 | 84 | 2.7 | 0.000792 | 293000 | 15 | B5
6 | 90 | 1.86 | 0.000441 | 237000 | 26 | B6

Molecular target: T1, natural Bet v 1 (Indoor, Cat #NA-BV1-1)
Assay: SPR Biacore, mAb captured on anti-hFc, 25C;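 note: rate constants from sensorgrams fitted to a 1:1 model with mass transport limitation, KD and t½ derived from kinetic constants, run in HBS-ET buffer at pH 7.4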
Method: as §1

Row | 100 nM natural Bet v 1 Bound (RU) | Kd [nM] | koff [s⁻¹] | kon [M⁻¹ s⁻¹] | t½ [min] | Binder
7 | 57 | 1.06 | 0.000312 | 295000 | 37 | B1
8 | 57 | 1.64 | 0.00069 | 422000 | 17 | B2
9 | 58 | 3.56 | 0.000402 | 113000 | 29 | B3
10 | 58 | 5.23 | 0.000503 | 96100 | 23 | B4
11 | 68 | 1.34 | 0.000246 | 184000 | 47 | B5
12 | 69 | 1.22 | 0.000149 | 122000 | 78 | B6

Molecular target: T2, European Hornbeam (Car b 1 isoform 1A & …)
Assay: SPR Biacore, 25C;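 note: binding of related allergens to purified monoclonal anti-Bet v 1 antibodies by surface plasmon resonance in HEPES-buffered saline pH 7.4, kinetics fitted to a 1:1 model with mass transport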
Method: (§2) Equilibrium dissociation constants (KD) for different related allergens binding to purified anti-Bet v 1 monoclonal antibodies were determined using a real-time surface plasmon resonance biosensor (SPR-Biacore) on a Biacore 4000 instrument. All binding studies were performed in 10 mM HEPES, 150 mM NaCl, 3 mM EDTA, and 0.05% v/v surfactant Tween-20, pH 7.4 (HBS-ET) running buffer at 25° C. […] Binding studies were performed on the following related allergens: Alder (Aln g 1, MyBiosource, Cat #MBS1041484), Apple (Mal d 1, MyBiosource, Cat #MBS1224919), Carrot (Dau c 1.2, MyBiosource, Cat #MBS1212920), Celery (Api g 1, MyBiosource, Cat #MBS1171376), Celery (Api g 2, MyBiosource, Cat #MBS1047880), European Hornbeam (Car b 1 isoform 1A & 1B, MyBiosource, Cat #MBS1200018), European Hornbeam (Car b 1 isoform 2, MyBiosource, Cat #MBS1043940), Hazel (Cor A 1, MyBiosource, Cat #MBS5304600), and White Oak (Que a 1, MyBiosource, Cat #MBS1258822). […] Association (kₐ) and dissociation (kd) rate constants were determined by fitting the real-time binding sensorgrams to a 1:1 binding model with mass transport limitation using Scrubber 2.0c curve-fitting software. Binding dissociation equilibrium constants (KD) and dissociative half-lives (t½) were calculated from the kinetic rate constants as:

Row | binding result | Binder
13 | no binding (tested: 100 nM) | B1
14 | no binding (tested: 100 nM) | B2
15 | no binding (tested: 100 nM) | B3
16 | no binding (tested: 100 nM) | B4
17 | no binding (tested: 100 nM) | B5
18 | no binding (tested: 100 nM) | B6

Molecular target: T3, Apple (Mal d 1, MyBiosource, Cat …)
Assay: SPR Biacore, 25C;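 note: binding of related allergens to purified monoclonal anti-Bet v 1 antibodies by surface plasmon resonance in HEPES-buffered saline pH 7.4, kinetics fitted to a 1:1 model with mass transport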
Method: as §2

Row | binding result | Binder
19 | no binding (tested: 100 nM) | B1
20 | no binding (tested: 100 nM) | B2
21 | no binding (tested: 100 nM) | B3
22 | no binding (tested: 100 nM) | B4
23 | no binding (tested: 100 nM) | B5
24 | no binding (tested: 100 nM) | B6

Molecular target: T4, Celery (Api g 1, MyBiosource, Cat …)
Assay: SPR Biacore, 25C;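 note: binding of related allergens to purified monoclonal anti-Bet v 1 antibodies by surface plasmon resonance in HEPES-buffered saline pH 7.4, kinetics fitted to a 1:1 model with mass transport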
Method: as §2

Row | binding result | Binder
25 | no binding (tested: 100 nM) | B1
26 | no binding (tested: 100 nM) | B2
27 | no binding (tested: 100 nM) | B3
28 | no binding (tested: 100 nM) | B4
29 | no binding (tested: 100 nM) | B5
30 | no binding (tested: 100 nM) | B6

Molecular target: T5, Alder (Aln g 1, MyBiosource, Cat …)
Assay: SPR Biacore, 25C;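 note: binding of related allergens to purified monoclonal anti-Bet v 1 antibodies by surface plasmon resonance in HEPES-buffered saline pH 7.4, kinetics fitted to a 1:1 model with mass transport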
Method: as §2

Row | binding result | Binder
31 | no binding (tested: 100 nM) | B1
32 | no binding (tested: 100 nM) | B3
33 | no binding (tested: 100 nM) | B5
34 | no binding (tested: 100 nM) | B6

Molecular target: T6, European Hornbeam (Car b 1 isoform 2, …)
Assay: SPR Biacore, 25C
Method: as §2

Row | binding result | Binder
35 | no binding (tested: 100 nM) | B2
36 | no binding (tested: 100 nM) | B3
37 | no binding (tested: 100 nM) | B4
38 | no binding (tested: 100 nM) | B5
39 | no binding (tested: 100 nM) | B6
